assay: soluble on expression in E. coli; label from the status in PepcDB or PDB records

Sequence	soluble on expression in E. coli
SMATKIDKEACRAAYNLVRDDGSAVIWVTFKYDGSTIVPGEQGAEYQHFIQQCTDDVRLFAFVRFTTGDAMSKRSKFALITWIGENVSGLQRAKTGTDKTLVKEVVQNFAKEFVISDRKELEEDFIKSELKKAGGANYDAQTE	soluble
SMDSRLQRIHAEIKNSLKIDNLDVNRCIEALDELASLQVTMQQAQKHTEMITTLKKIRRFKVSQVIMEKSTMLYNKFKNMFLVGEGDSVLEVLFQ	soluble
SMGRRCQAQVSRRISFSASHRLYSKFLSDEENLKLFGKCNNPNGHGHNYKVVVTVHGEIDPATGMVMNLADLKKYMEEAIMQPLDHKNLDMDVPYFADVVSTTENVAVYIWDNLQKVLPVGVLYKVKVYETDNNIVVYKGE	soluble
SMNFYSAYQHGFVRVAACTHHTTIGDPAANAASVLDMARACHDDGAALAVFPELTLSGYSIEDVLLQDSLLDAVEDALLDLVTESADLLPVLVVGAPLRHRHRIYNTAVVIHRGAVLGVVPKSYLPTYREFYERRQMAPGDGERGTIRIGGADVAFGTDLLFAASDLPGFVLHVEICEDMFVPMPPSAEAALAGATVLANLSGSPITIGRAEDRRLLARSASARCLAAYVYAAAGEGESTTDLAWDGQTMIWENGALLAESERFPKGVRRSVADVDTELLRSERLRMGTFDDNRRHHRELTESFRRIDFALDPPAGDIGLLREVERFPFVPADPQRLQQDCYEAYNIQVSGLEQRLRALDYPKVVIGVSGGLDSTHALIVATHAMDREGRPRSDILAFALPGFATGEHTKNNAIKLARALGVTFSEIDIGDTARLMLHTIGHPYSVGEKVYDVTFENVQAGLRTDYLFRIANQRGGIVLGTGDLSELALGWSTYGVGDQMSHYNVNAGVPKTLIQHLIRWVISAGEFGEKVGEVLQSVLDTEITPELIPTGEEELQSSEAKVGPFALQDFSLFQVLRYGFRPSKIAFLAWHAWNDAERGNWPPGFPKSERPSYSLAEIRHWLQIFVQRFYSFSQFKRSALPNGPKVSHGGALSPRGDWRAPSDMSARIWLDQIDREVPKG	soluble
SMQEKYRLVVVGGGGVGKSALTIQFIQSYFVTDYDPTIEDSYTKQCVIDDRAARLDILDTAGQEEFGAMREQYMRTGEGFLLVFSVTDRGSFEEIYKFQRQILRVKDRDEFPMILIGNKADLDHQRQVTQEEGQQLARQLKVTYMEASAKIRMNVDQAFHELVRVIRKFQEQ	soluble
SMRKFGVVVVGVGRAGSVRMRDLRNPHPSSAFLNLIGFVSRRELGSIDGVQQISLEDALSSQEVEVAYICSESSSHEDYIRQFLNAGKHVLVEYPMTLSLAAAQELWELAEQKGKVLHEEHVELLMEEFAFLKKEVVGKDLLKGSLLFTAGPLEEERFGFPAFSGISRLTWLVSLFGELSLVSATLEERKEDQYMKMTVCLETEKKSPLSWIEEKGPGLKRNRYLSFHFKSGSLENVPNVGVNKNIFLKDQNIFVQKLLGQFSEKELAAEKKRILHCLGLAEEIQKYCCSRK	soluble
SMTTLFSKIKEVTELAAVSGHEAPVRAYLREKLTPHVDEVVTDGLGGIFGIKHSEAVDAPRVLVASHMDEVGFMVSEIKPDGTFRVVEIGGWNPMVVSSQRFKLLTRDGHEIPVISGSVPPHLTRGKGGPTMPAIADIVFDGGFADKAEAESFGIRPGDTIVPDSSAILTANEKNIISKAWDNRYGVLMVSELAEALSGQKLGNELYLGSNVQEEVGLRGAHTSTTKFDPEVFLAVDCSPAGDVYGGQGKIGDGTLIRFYDPGHLLLPGMKDFLLTTAEEAGIKYQYYCGKGGTDAGAAHLKNGGVPSTTIGVCARYIHSHQTLYAMDDFLEAQAFLQALVKKLDRSTVDLIKHY	soluble
SMTYIPPGESLRDLIEQSQSSGSGSGLPLLVQRTIAKQIQMVKQIGKGRYGEVWMGKWRGEKVAVKVFFTTEEASWFRETEIYQTVLMRHENILGFIAADIKGTGSWTQLYLITDYHENGSLYDYLKSTTLDAKSMLKLAYSSVSGLCHLHTEIFSTQGKPAIAHRDLKSKNILVKKNGTCCIADLGLAVKFISDTNEVDIPPNTRVGTKRYMPPEVLDESLNRNHFQSYIMADMYSFGLILWEVARRCVSGGIVEEYQLPYHDLVPSDPSYEDMREIVCIKKLRPSFPNRWSSDECLRQMGKLMTECWAHNPASRLTALRVKKTLAKMSESQDIKL	soluble
SMVRLKKSFGQHLLVSEGVLKKIAEELNIEEGNTVVEVGGGTGNLTKVLLQHPLKKLYVIELDREMVENLKSIGDERLEVINEDASKFPFCSLGKELKVVGNLPYNVASLIIENTVYNKDCVPLAVFMVQKEVAEKLQGKKDTGWLSVFVRTFYDVNYVMTVPPRFFVPPPKVQSAVIKLVKNEKFPVKDLKNYKKFLTKIFQNRRKVLRKKIPEELLKEAGINPDARVEQLSLEDFFKLYRLIEDSGE	soluble
SNAEQVRQAGIDDIGGILELIHPLEEQGILVRRSREQLEQEIGKFTIIEKDGLIIGCAALYPYSEERKAEMACVAIHPDYRDGNRGLLLLNYMKHRSKSENINQIFVLTTHSLHWFREQGFYEVGVDYLPGAKQGLYNFQRKSKILALDL	soluble
SNAESAAPQVHLSILATTDIHANMMDYDYYSDKETADFGLARTAQLIQKHREQNPNTLLVDNGDLIQGNPLGEYAVKYQKDDIISGTKTHPIISVMNALKYDAGTLGNHEFNYGLDFLDGTIKGADFPIVNANVKTTSGENRYTPYVINEKTLIDENGNEQKVKVGYIGFVPPQIMTWDKKNLEGQVQVQDIVESANETIPKMKAEGADVIIALAHTGIEKQAQSSGAENAVFDLATKTKGIDAIISGHQHGLFPSAEYAGVAQFNVEKGTINGIPVVMPSSWGKYLGVIDLKLEKADGSWKVADSKGSIESIAGNVTSRNETVTNTIQQTHQNTLEYVRK	soluble
SNAKDVLGLTLLEKTLKERLNLKDAIIVSGDSDQSPWVKKEMGRAAVACMKKRFSGKNIVAVTGGTTIEAVAEMMTPDSKNRELLFVPARGGLGEDVKNQANTICAHMAEKASGTYRLLFVPGQLSQGAYSSIIEEPSVKEVLNTIKSASMLVHGIGEAKTMAQRRNTPLEDLKKIDDNDAVTEAFGYYFNADGEVVHKVHSVGMQLDDIDAIPDIIAVAGGSSKAEAIEAYFKKPRNTVLVTDEGAAKKLLRDE	soluble
SNALANRIENVVSQERTRKKFESLVSDSPDGIVHLTTNGTILSVNPSMAGRLGADPDTLVGQQLSAVMDSEAANQRLEAGKSAVENGTATRSEDAVGGRHYHNQYIPVDSHRKSDTFQLVSRDIT	soluble
SNAMANFEDFLTLDLRIGTVTHAEEFKEARVPAIRLEIDFGELGMKQSSAQITKRYNPEDLIGQQIVAVVNFPPKRVAGFKSEVLVLGGVPEAGDVVLLQPNMELPNGTKIS	soluble
SNAMATNLIGLDTTQSQKLANALNNLLANYQVFYMNTRGYHWNIQGKEFFELHAKFEEIYTDLQLKIDELAERILTLSARPMHSFSGYLKAAQIKEHTDSIDGRSSMQGLVDGFSILLHQQRDILELAGETGDEGTSALMSDYIREQEKLVWMLNAWLK	soluble
SNAMAWVVNKQSTQEELANRFRALVEANEILQIPGAHDAMAALVARNTGFLALYLSGAAYTASKGLPDLGIVTSTEVAERARDLVRATDLPVLVDIDTGFGGVLNVARTAVEMVEAKVAAVQIEDQQLPKKCGHLNGKKLVTTEELVQKIKAIKEVAPSLYIVARTDARGVEGLDEAIERANAYVKAGADAIFPEALQSEEEFRLFNSKVNAPLLANMTEFGKTPYYSAEEFANMGFQMVIYPVTSLRVAAKAYENVFTLIKETGSQKDALSNMQTRSELYETISYHDFEELDTGIAKTVLSEDQ	soluble
SNAMFHYTVDVSTGMNETIERLEESLKQEGFGVLWQFSVTEKLQEKGLDFSTPMVILEVCNPQEAARVLNENLLVGYFLPCKLVVYQENGTTKIGMPKPTMLVGMMNDPALKEIAADIEKRLAACLDRCR	soluble
SNAMIAKEFETFLLGQEETFLTPAKNLAVLIDTHNADHATLLLSQMTYTRVPVVTDEKQFVGTIGLRDIMAYQMEHDLSQEIMADTDIVHMTKTDVAVVSPDFTITEVLHKLVDESFLPVVDAEGIFQGIITRKSILKAVNALLHDFSKEYEIRCQ	soluble
SNAMKAPELQIQQWFNSATDLTLADLRGKVIVIEAFQMLCPGCVMHGIPLAQKVRAAFPEDKVAVLGLHTVFEHHEAMTPISLKAFLHEYRIKFPVGVDQPGDGAMPRTMAAYQMRGTPSLLLIDKAGDLRAHHFGDVSELLLGAEIATLLGEAAPSV	soluble
SNAMNHSRESYDRLARELGGYRHPWARVLSGPDPELTFDLWLSRLLTPQTRVLEAGCGHGPDAARFGPQAARWAAYDFSPELLKLARANAPHADVYEWNGKGELPAGLGAPFGLIVSRRGPTSVILRLPELAAPDAHFLYVGPRLNVPEVPERLAAVGWDIVAEDHVSVLAHAPTWEDWQMRGEFMGKLARRADWDAEATVRGMPYREERHLVLARQLGVARKLGA	soluble
SNAMNVIRLKEDKFREALRLSEYAFQYKVDEDRLQQQITKMKESHEVYGIMEGENLAAKLHLIPFHIYIGKEKFKMGGVAGVATYPEYRRSGYVKELLQHSLQTMKKDGYTVSMLHPFAVSFYRKYGWELCANLLVCHMTKSDLVMKKQVNGTVKRFNKESHPEEVEKLYETFAELFSGMLVRNEKWWLQAVYDDLTLAIYYDENQTAAGYMLYKIENYKMTVEEFVPLHNEARNGLWNFICQHDSMIKDLEMTVSENEPLLYTLQEPRVKTEIKPYFMGRIVDVEQFLKQYELNWNNVQQEVILHITDSFAQWNNITVRIANHEITIIEEPIDKGIKLDINALSTILFGYRRPLELNELELISGSEEEIRAFESVVPVRKPFIYDFF	soluble
SNAMNVNQIVRIIPTLKANNRKLNETFYIETLGMKALLEESAFLSLGDQTGLEKLVLEEAPSMRTRKVEGRKKLARLIVKVENPLEIEGILSKTDSIHRLYKGQNGYAFEIFSPEDDLILIHAEDDIASLVEVGEKPEFQTDLASISLSKFEISMELHLPTDIESFLESSEIGASLDFIPAQGQDLTVDNTVTWDLSMLKFLVNELDIASLRQKFESTEYFIPKSEKFFLGKDRNNVELWFEEV	soluble
SNAMRVLTGLQPSGDLHIGNYFGAIKQMVDAQEKSQMFMFIANYHAMTSSQDGEKLKQNSLKAAAAFLSLGIDPQKSVFWLQSDVKEVMELYWILSQFTPMGLLERAHSYKDKVAKGLSASHGLFSYPVLMAADILLFDTRIVPVGKDQIQHVEIARDIALKVNNEWGEIFTLPEARVNEEVAVVVGTDGAKMSKSYQNTIDIFSSEKTLKKQISSIVTDSTALEDPKDHENCNIFKIAKLFLDESGQKELQIRYEKGGEGYGHFKIYLNELVNAYFKEAREKYNELLEKPSHLKEILDFGATKARKIAQEKMQKIYEKIGL	soluble
SNAMSDKFHILLLNGPNLNLLGTREPEKYGYTTLAEIVSQLEIQAQGMDVALSHLQSNAEHALIDSIHQARGNTDFILINPAAFTHTSVALRDALLGVQIPFIEIHLSNVHAREPFRHHSYLSDIAVGVICGLGADGYNFALQAAVNRLSKSN	soluble
SNAMSEFIMNNLEQTARRWLEERGVTVEKIAELVYYLQSKYHPDLTMEECIENVNRVISKREVQNAILTGIQLDKLAEDGRLDEPLQSIIRRDEGLYGVDEILALSIVNVYGSIGFTNYGYIDKQKPGILQYLNDKSTGKCNTFLDDIVGAIAAAASSRLAHRAANAE	soluble
SNAMTDAVLELPAATFDLPLSLSGGTQTTLRAHAGHWLVIYFYPKDSTPGATTEGLDFNALLPEFDKAGAKILGVSRDSVKSHDNFCAKQGFAFPLVSDGDEALCRAFDVIKEKNMYGKQVLGIERSTFLLSPEGQVVQAWRKVKVAGHADAVLAALKAHAKQ	soluble

— the DeepSol protein solubility set
